{"source": "patent US8192734B2", "about": "“Compositions and methods for bone strengthening” (Cornell University, priority 2007, dated 2012)", "assay_type_in_all_cases": "in vivo, pig", "key": {"[1]": {"test_system": "pigs fed P-adequate corn-soybean meal basal diet", "experiment": "Expt 2: femur geometrical and strength properties", "protocol": "A three-point bending test was conducted on the dissected bones to generate load-deformation curves with an Instron Model 5566 (Norwood, Mass.). Mechanical properties of bones were calculated using formula as previously described^(29). Bone cross sections were cut at the mid-point of loading and used to determine area moment of inertia. Cross sections were submersed for 5 min in a 0.4 mol/L sodium hypochlorite solution to remove periosteum and marrow tissue, and then embedded in blue clay (Play-Doh, Hasbro, Pawtucket, R.I.) to prevent depth-of-field distortions and to enhance contrasts. The embedded sections were scanned with a flat-bed scanner (Epson Perfection Model 3490, Long Beach, Calif.) and analyzed using Image J software (30) to measure the x-y coordinates of bone pixels."}, "[2]": {"test_system": "weanling pigs fed high P diet", "experiment": "Examples 4-8: radiographic bone density and metacarpal histomorphometry", "settings": "8 wk", "protocol": "As in Examples 1-3, the animal protocol was approved by Cornell Animal Care and Use Committee. An 8-week feeding trial was conducted at Cornell University Swine Research Farm. Thirty weanling pigs (Yorkshire×Hampshire×Landrace, body weight=8.6±0.5 kg) were allocated into three groups (n=10). […] were fed a corn-soy basal diet (BD)+0.25% inorganic phosphorus (iP, dicalcium phosphate). Group 2 were fed BD+0.35% iP. Group 3 were fed BD+0.35% iP+3,400 units of phytase/kg (Escherichia coli appA2, OptiPhos, JBS United, Inc., Sheridan, Ind.). The BD (Table 7) contained adequate levels of all nutrients except for P^(63), and 0.25% iP is the supplementation level recommended by NRC^(24) to meet the P needs of this age of pigs. […] Pigs were housed in an environmentally-controlled barn (20-25° C.; 12-light: 12-dark cycle), and given free access to feed and water.\nAfter the skin and major muscles were removed, two left legs were subjected to X-ray radiography using a Faxitron machine (Model 43855A; Hewlett Packard, McMinnville, Oreg., USA). Bone radiographs of femur and metacarpals were quantified by the kodac software. The software counted the total number of pixels. Thereafter, the 3rd and 4th metacarpals and femurs were collected to measure length, weight, height, and width after removing the remaining muscle and connective tissue. After the X-ray analysis, the two left legs were used for bone mechanical and mineral testing. Bone mechanical properties were determined by a three-point bending test (ASAE Standard S459 1992) using an Instron 4500 Machine Universal Testing Instrument (Model 1122, Instron, Canton, Mass.) with Instron Series IX Automated Materials Testing System Software (version 4.05). During testing, force was applied to the center of the bone held by supports 2.0 cm apart for metacarpals and 3.3 cm apart for femurs. The crosshead speed was set at 50 mm/min and the sampling rate was at 10 points/sec. The extrinsic parameters (stiffness/slope, maximum load, energy to break, maximum displacement) were derived from the force-displacement curve. Bone breaking strength was calculated with the adjustment of bone weight, and the average strength of the 3rd and 4th metacarpal was used as the metacarpal strength for each pig.\nMetacarpals (4th) from right foot of pigs (n=5 for each group) were quickly fixed by 10% formalin for histology, decalcified, embedded in paraffin sagittally serially sectioned through the midline (8 μm), and stained with Masson's trichrome as previously described^(74). Variation of bone matrix mineralization was detected by modified tetrachrome method^(75). Sulfated proteoglycans were detected by alcian blue staining^(76) and counter staining with Mayer's acid haematoxylin. PCI software—CIMAGING System (Model 1280, Compix Inc., Cranberry, Pa.)—was applied to measure bone surface, osteoid, bone volume, trabecular thickness, number, and separation, and proteoglycans surface. Trabecular size and separation distances were measured by the software measurement scale. Trabecular numbers were counted within a specified field. For proteoglycans measurement, the total area of trabecular bone was first captured to define the region of interest (ROI). Then, within the ROI the blue color area of proteoglycans was captured and its area measured to define the object area. For osteoid measurement, the first cortical bone surface was the object. The area fraction of the deep green in the periosteal area was expressed as: Area fraction (%)=Object area/Region of interest (ROI)×100."}, "[3]": {"test_system": "pigs fed P-adequate corn-soybean meal basal diet", "experiment": "Expt 1: metatarsal breaking strength, three-point bending test", "settings": "BD + phytase 2,000 U/kg, 6 wk", "protocol": "Based on results of the preliminary trials, Experiment 1 was conducted with 24 gilts (6-wk old, 8.6±0.1 kg body weight) to test the possible benefit of phytase to metatarsal breaking load of pigs fed the corn-soybean meal basal diet (BD, Table 1). The BD contained 0.33% available P and adequate concentrations of all other required nutrients (24). The selected pigs were divided into two groups (n=12), and were fed BD or BD+phytase at 2,000 U/kg for 6 wk.\nThird and 4th metatarsals in both experiments and femur (right leg) in Experiment 2 were prepared by manually removing surrounding skin, muscle and other tissues. Bones were stored in closed plastic bags at 4° C. until strength analysis. Maximal breaking load was measured using an Instron 4500 Machine (Canton, Mass.) at room temperature (23° C.) by subjecting each bone to a three-point bending test^(28). During mechanical tests, force was applied to the center of the bone held by supports 2.0 cm apart for metatarsals and 3.3 cm apart for femur. The crosshead speed was set at 50 mm/min and the sample rate was 10 points/s. Final strength was determined from load-displacement curves indicating the maximum loads. The metatarsal breaking strength was expressed as the mean strength of four bones from both left and right feet of pigs in Experiment 1, and as the mean of the two bones from the right foot of pigs in Experiment 2. […]"}, "[4]": {"test_system": "weanling pigs fed high P diet", "experiment": "Examples 4-8: cortical and cancellous bone ash and mineral profile", "settings": "8 wk, 0.35% iP + Sr 50 mg/kg + phytase 3,400 U/kg"}, "[5]": {"settings": "phytase 2000 U/kg and/or Sr 50 mg/kg, n=6"}, "[6]": {"settings": "0.35% iP + Sr 50 mg/kg + phytase 3,400 U/kg, P<0.001"}, "[7]": {"settings": "phytase 3,400 U/kg into the 0.35% iP diet, P<0.001"}, "[8]": {"settings": "phytase 3,400 U/kg into the 0.35% iP diet, P<0.05"}}, "data": [{"molecule": "Phytase: Escherichia coli AppA2 phytase (OptiPhos, JBS United, Inc.), added to diets at feed mixing; AppA2 is SEQ ID NO: 2 (protein, listed as Escherichia coli) MKAILIPFLSLLIPLTPQSAFAQSEPELKLESVVIVSRHGVRAPTKATQLMQDVTPDAWPTWPVKLGWLTPRGGELIAYLGHYQRQRLVADGLLAKKGCPQPGQVAIIADVDERTRKTGEAFAAGLAPDCAITVHTQADTSSPDPLFNPLKTGVCQLDNANVTDAILSRAGGSIADFTGHRQTAFRELERVLNFSQLNLCLNREKQDESCSLTQALPSELKVSADNVSLTGAVSLASMLTEIFLLQQAQGMPEPGWGRITDSHQWNTLLSLHNAQFYLLQRTPEVARSRATPLLDLIMAALTPHPPQKQAYGVTLPTSVLFIAGHDTNLANLGGALELNWTLPGQPDNTPPGGELVFERWRRLSDNSQWIQVSLVFQTLQQMRDKTPLSLNTPPGEVKLTLAGCEERNAQGMCSLAGFTQIVNEARIPACSL", "values": [{"measurement": "enhancement of yield bending moment of femur", "setting": "[1]; P<0.05", "value": 19, "unit": "%"}, {"measurement": "larger cross-sectional area of femur vs diets without phytase", "setting": "[1]; P=0.06", "value": 11, "unit": "%"}, {"measurement": "femur Cross-sectional area", "setting": "[1]; [5]", "value": 165, "unit": "mm^2"}, {"measurement": "femur Cross-sectional radius", "setting": "[1]; [5]", "value": 9.0, "unit": "mm"}, {"measurement": "femur Maximum bending moment", "setting": "[1]; [5]", "value": 2263, "unit": "kg × mm"}, {"measurement": "femur Maximum stress", "setting": "[1]; [5]", "value": 4.0, "unit": "kg/mm^2"}, {"measurement": "femur Modulus of elasticity", "setting": "[1]; [5]", "value": 49, "unit": "kg/mm^2"}, {"measurement": "femur Moment of inertia", "setting": "[1]; [5]", "value": 5419, "unit": "mm^4"}, {"measurement": "femur Strain", "setting": "[1]; [5]", "value": 0.06}, {"measurement": "femur Yield bending moment", "setting": "[1]; [5]", "value": 1507, "unit": "kg-mm"}, {"measurement": "femur Yield stress", "setting": "[1]; [5]", "value": 2.7, "unit": "kg/mm^2"}, {"measurement": "improvement of femur bone density (radiograph image pixel numbers) vs 0.35% iP", "setting": "[2]; [6]", "value": 28, "unit": "%"}, {"measurement": "improvement of metacarpus bone density (radiograph image pixel numbers) vs 0.35% iP", "setting": "[2]; [6]", "value": 20, "unit": "%"}, {"measurement": "increase in metacarpal bone volume vs 0.35% iP", "setting": "[2]; [6]", "value": 38, "unit": "%"}, {"measurement": "enhancement of osteoid thickness in the periosteal area", "setting": "[2]; [7]", "value": 60, "unit": "%"}, {"measurement": "increase of sulfated proteoglycans in cancellous bone", "setting": "[2]; [7]", "value": 18, "unit": "%"}, {"measurement": "decrease in trabecular separation, metacarpal bone", "setting": "[2]; [8]", "value": 37, "unit": "%"}, {"measurement": "increase in trabecular density, metacarpal bone", "setting": "[2]; [8]", "value": 42, "unit": "%"}, {"measurement": "increase in trabecular thickness, metacarpal bone", "setting": "[2]; [8]", "value": 51, "unit": "%"}, {"measurement": "breaking strength of metatarsals", "setting": "[3]", "value": "112.0 ± 3.9", "unit": "kg"}, {"measurement": "greater breaking strength of metatarsals vs BD", "setting": "[3]; P<0.02", "value": 12, "unit": "%"}, {"measurement": "decrease of Ca concentration in cancellous bones, femur and metacarpus", "setting": "[4]", "value": "11 to 19", "unit": "%"}, {"measurement": "total ash concentration of cortical bone, femurs", "setting": "[4]", "value": "not altered"}, {"measurement": "elevation of Sr concentration in cancellous bone, femur", "setting": "[4]; P<0.002", "value": 127, "unit": "fold"}, {"measurement": "increase in Fe concentration of cancellous bone, metacarpus", "setting": "[4]; P<0.05", "value": 22, "unit": "%"}]}]}
